Data on 1 substance can be found in patent publication US20110274721A1.

The experiment has as its target gp140ΔCFI B(C-HR2) ext 2F5 (HIV-1 strain HXB2 (clade B); HIV-1 strain BaL (clade B); HIV-1; HIV-1 strain 97ZA012 (clade C)) (UniProt P04578). The experiment can be described thus: ELISA on Env from transfected 293 cells.

With monoclonal antibody 2F5, the fold higher reactivity than the parental clade B gp140ΔCFI fell in the range of 20 to 30 fold.
